From patent publication US20020037999 come the findings set out here.

The test system of the series is p54 SAPKβ (JNK3) fused to the WIN-ZIP B1 leucine zipper and Myc tag.

In the case of “v-Src fused at the N-terminus with HA tag alone”, the “tyrosine phosphorylation of p54 (anti-Myc immunoprecipitates probed with anti-PTyr)” value is recorded as “p54 is phosphorylated on tyrosine only when the WIN-ZIP A1-Src fusion is present (so not with v-Src carrying the HA tag alone)”.

Take “v-Src fused at the N-terminus with HA tag plus WIN-ZIP A1 leucine zipper”: the “tyrosine phosphorylation of p54 (anti-Myc immunoprecipitates probed with anti-PTyr)” value is recorded as “p54 is phosphorylated on tyrosine only when the WIN-ZIP A1-Src fusion is present”.
